In the nanobody polyreactivity screen of Harvey et al. (2022):

Experiment: yeast display, Sf9 membrane polyspecificity reagent, FACS + sequencing; frameworks hold sequencing errors
Summary of the method: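 Polyreactivity labels are assigned by the sorting gate from which each nanobody was recovered. The gates were low and high (top ~1%), set on anti-HA fluorescence for expression and streptavidin fluorescence for reagent binding. Before sorting, galactose-induced (36–48 hours) yeast display cells were stained for 1 hour at 4 °C with 10% biotinylated, detergent-solubilized Sf9 membrane reagent.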

Row | Sequence | polyreactivity (PSR sort gate)
1 | QVQLVESGGGLVQAGGSLRLSCAASGRIFGTNAMGWYIQAPGKERELVADITSGGSTNYADSVKGRFTISRDNAKNTVYLQMNSLKPEDTAVYYCAADVIGDLRWYRDEYWGQGTQVTVSS | low polyreactivity
2 | QVQLVESGGGLVQAGGSLRLSCAASGSIFIYYAMGWYRQAPGKERELVATISSDDRTNYTDSVKGRFTISRDNAKNTVYLQMNSLKPEDTAVYYCAADRYWAGRDGPEYDYWGQGTQVTVSS | low polyreactivity
3 | QVQLVESGGGLVQAGGSLRLSCAASGITLHEYVMGWYRQAPGKERELVAAISRRGDSTYYADSVKGRFTISRDNAKNTVYLQMNSLKPEDTAVYYCAARWYWYWSSWDYYSWGQGTQVTVSS | low polyreactivity
4 | QVQLVESGGGLVQAGGSLRLSCAASGRTFSVYAMGWYRQAPGKERELVAAIRTSGGITYYADSVKGRFTISRDNAKNTVYLQMNSLKPEDTAVYYCAAETFRPYSYTRYYYWGQGSQVTVSS | high polyreactivity
5 | QVQLVESGGGLVQAGGSLRLSCAASGSIFYYKYAMGWYRQAPGKERELVAAITSTGGTTYYADSVKGRFTISRDNAKNTVYLQMNSLKPEDTAVYYCAALAPYIGGVDYDYWGQGTQVTVSS | low polyreactivity
6 | QVQLVESGGGLVQAGGILRLSCAASGSTFRLNAMVWYRQEPGKERELVASIRWSVGITYYADSVKGRFTISLDNSKNTFYLQMNSLKPEDTAVYYCANGDTNWRYYYWGQGTQVTVSS | high polyreactivity
7 | QVQLVESGGGLVQAGGSLRLSCAASGRIFTHNDMGWYRQAPGKERELVAAITSGGRTTYADSVKGRFTISRDNAKNTVYLQMNSLKPEDTAVYYCNADTCLGSLDFDKRDYWGQGTQVTVSS | low polyreactivity
8 | QVQLVESGGGLVQAGGSLRLSCAASGSIFDPYAMGWSRQAPGKEREFVAAISYSAGSTYYADSVKGRFTISRDNAKNTVYLQMNSLKPEATAVYYCAARYTHTSPSIRSWAYYYWGQGTQVTVSS | high polyreactivity
9 | QVQLVESGGGLVQAGGSLRLSCAASGSTFQYYARGWYRQAPGKETELVAAISDRDGGTFYADSVKGRFTISRDNAKNTVYLQMNSLKPEDTAVYYCATDAVGFRLDDNGYWGQGTQVTVSS | low polyreactivity
10 | QVQLVESGGGLVQAGGSLRLSCAASGSTCSVNAMGWYRQAPGKERELVAAITYSGGSTYYADSVKGRFTISRDNAKNTVYLQMNSLKPEDTAVYYCNRDTRYYWKRYGYWGQGTQVTVSS | high polyreactivity
11 | QVQLVESGGGLVQAGGSLRLSCAASGRIFGYTMGWYRPAPGKERELVAAISKSGGSTYYADSVKGRFTISRDNAKNTVYLQMNSLKPEDTAVYYCNKPQRILYDYWGQGTQVTVSS | high polyreactivity
12 | QVQLQESGGGLVQAGGSLRQSYAASGYIFPSLAMGWYRQAPGKEREFVAAIGRGSTNNYADSVKGRFTISRDNAIYTAYQQMNSLKPEDTAVYYCGAAASPLTRHLYWGQGTQVTVSS | low polyreactivity
13 | QVQLVESGGGLVQAGGSLRLSCAASGIFRKYAMGWYRQAPGTERELVAAITWGGGRTYYADSVKGRFTISRDNAKNTVYLQMNSLKPEDTAVYYCAAEYSLVPSYKVYYWGQGTQVTVSS | high polyreactivity
14 | QVQLVESGGGLVQAGGSLRLSCAASGFTFRQNAMGWYIQAPGKERELVAAISRGGGGTHYADSVKGRFTISRDNAKNNVYLHMNSLKPEDTAVYYCAKRRYPTFVVPVYYWGQGTQVTVSS | high polyreactivity
15 | QVQLVESGGGLVQAGGSHRLSCAASGRIIGYNPMGWYRQAPGKERELVASIRYSGGSTYYADSVKGRFTISRDNAKNPVYLQMNSLKPEDTAVYYCATRVTYRRRFDYWGQGTQVTVSS | high polyreactivity
16 | QVQLVESGGGLVQAGGSLRLSCAASGSIFVLNAMGWYTQAPGKERELVAAINKSGGRTYYADSVKGRFTISRDNAKNTVYLQMNSLKPEDTAVDYCAVDISVTGSSNRYGYWGQGTQVTVSS | high polyreactivity
17 | QVQLVESGGGLVQAGGSLRLSCAASGGTFGFYAMGWYRQAPGKERELVAAISWSGVGTYYADSVKGRFTISRDNAKNTVYLQMNSLKPEATAVYYCAAKQYTQKISSPGTILRYYYWGQGTQVTVSS | high polyreactivity
18 | QVQLVESGGGLVQAGGSLRLSCAASGRTFRTNAMGWYRQAPGKERELVAAITSDGTYYADSVKGRFTISRDNAKKTVYLQMNSLKPEDTAVYYCNVDDRETRDDYWGQGTQVTVSS | low polyreactivity
19 | QVQLVESGGGLDQAGGSLRLSCAASGRTFIAYARGWYRQAPGKERELVAAITSSGGSTNYADSVKGRFTISRDNAKNTVYLQMNSLKPEDTAVYYSATDIYECPYFYYSYYYWGQGTQVTVSS | low polyreactivity
20 | QVQLVESGGGLVQAGGSLRLSCAASGSTFYPYAMGWYRQATGKERELVAAISYSGGSKYYADSVKGRFTISRDNAKNTVYLQMNSLKPEDTAVYYCAAYYRVYGASYDYWGQVTQVTVSS | high polyreactivity
21 | QVQLVESGGGLVQAGGSLRLSSAASGITFYFYVMGWYRQAPGKERELVADISTSDDSTYYADSVKGRFTISRDNAKNTVYLQMNSLKPEDTAVYYCATATRTYSAWYEYDYWGQGTQVTVSS | low polyreactivity

Row | Sequence | polyreactivity (PSR sort gate)
22 | QVQLVESGGGLVQAGGSLRLSCAASGSTLDKYAMGWYRQAPGKERELVAAISSSGGSTYYADSVKGRFTISRDNAKNTVYLQMNSLKPEDTAVYYCAARFFRGRYLDDYWGQGTQVTVSS | high polyreactivity
23 | QVQLVESGGGLVQAGGSLRLSCAPSGSIFDSNAMGWYRQAPGKERELVAAISSSGARTYYADSVKGRFTISRDNAKNTVYLQMNSLKPEDTAVYYCAARYAGGYYYWGQGTQVTVSS | high polyreactivity
24 | QVQLVESGGGLVQAGGSLRLSCAASGSTFYDYVMGWYRQAPGKERELVAVISSSGSTNYADSVKGRITISRDNAKNTVYLQMNSLKTEDTAVYYCAAEYTFDWLEFDYWGQGTQVTVSS | low polyreactivity
25 | QVQLVESGGGLVQAGGSLRLSCAASGSIFGVNAMGWYRQAPGKERELVAAISSGGSTNYADSVKGRFTISRDNAKNTVYLQMNSLKPEDTAVSYCNTLWGHQYIGPYRTRECYYWGQGTQVTVSS | low polyreactivity
26 | QVQLVESGGGLVQAGGSLRLSCAAYGRIIRWYARGWYRPSPGKERALVAAISWSGGSTYYADSVKGRFTISRDNAKNTVYLQLNSLKPEDTAVYYCNTVYAEYDYSTVDYWGQGTQVTVSS | high polyreactivity
27 | QVQLVESGGGLVQAGGSLRLSCAASGFIFTDNAMGWYRQAPGKERELVAAISKNGGSTYYADSVKGRFTISRDNAKNTVYLQMNSLKPEDTAVYYCNTRRKNFDKSSQVEYWGQGTQVTVSS | high polyreactivity
28 | QVQLVESGGGLVQAGGSLRLSCAASGFTFHWNAMGWYRPAPGKERELVAVITSGGSTNYADSVKGRFTISRDNAKNTVYLQMNSLKPEDTAVYYCAKEDGYSQLKTTFDEPGYGSWGQGTQVTVSS | low polyreactivity
29 | QVQLVESGGGLVQAGGSLRLSCAASGRIFRRNVMGWYRQAPGKERELVAAITGSGSSTYYADSVKGRFTISRDNAKNTVYLQMNSLKPVDTAVYYCATKWRFKLGDYWGQGTQVTVSS | high polyreactivity
30 | QVQLVESGGGLVQAGGSLRLSCAASGSTFYNYAMGWYRQAPGKERELVAAISSGGGITYYADSVKGRFTISRDNAKNTVYLQMNSLKPEDTAVYYCNARRKYLGYNYWGQGSQVTVSS | high polyreactivity
31 | QVQLVESGGGLVQAGGSLRLSCAASGIIFRLYAMGWYRQAPGKERELVAAITSRGGSTYYADSVKGRFTISRDNAKNTVYLQKNSLKPEDTAVYYCAARPVYSGYDYWGQGPQVTVSS | high polyreactivity
32 | QVQLVESGGGLVQAGGSLRLSCAASGSTFYVNTMGWYRQAPGKERELVAVISRTGTSTYYADSVKGRFTISRDNAKNTVYFQMNCLKPEDTAVYYCAKRPLPGRPNRSILQYYYWGQVTQVTVSS | high polyreactivity
33 | QVLLVESGGGLVQAGGSLRLSCAASGRTFYWYAMGWYRQAPGKERELVAGISSGGGTYYADSVKGRFTISRDNAKNTVYLQMNSLKPEDTAVYYCAAASENIWVWQEYIEYDYWGQGTQVTVSS | low polyreactivity
34 | QVQLVESGGGLVQAGGSLRLSCAASGRTFKHYAMGWYRPAPGKERELVAAITSGGSTYYADSVKGRFTISRDNAKNTVYLQMNSLKPEDTAVYYCNKESYFDTYRRYDSWGQGTQVTVSS | low polyreactivity
35 | QVQLVESGGGLVQAGGSLRLSCAASGGTFWDYAMGWYRQAPGKERELVAAITYGTASTDYADSVKGRFTISRDNAKNTVYLQMNSLKPEDTAVYYCAARWNQYPYSYSTYDYWGQGTQVTVSS | low polyreactivity
36 | QVQLVESGGGLVQAGGSLRLRCAASGFIFCSYAMGWYRQAPGKERELVAAINTSGDSTYYADSVKGRFTISRDNAKNTVYLQINSLKPEDTAVYYCAAESSPDGYFLSDYWGQGTQVTVSS | low polyreactivity
37 | QVQLHESGGGLVQAGGGLRLSCAASGSISSTGFMGWYRQPPGKEREPVAAIAPGTTTYYADSVKGRFTISRDNAKNTVYLQMISLRPEDTAVYYCAVFTDNRVAFLYWGQGTQVTVSS | low polyreactivity
38 | QVQLVESGGGLVQAGGSLRLSCADSGSIFGVYTRGWYSQAPGKERELVAAISGSGGSTYYADSVMGRFTISRDNAKNTVYFQMNSLIPEDTGVDYCATRFPNIPPYDSWGQGTQVTVSS | low polyreactivity
39 | QVQLVESGGGLVQAGGSLRLSCAASGFIFRGNAMGWYRQAPGKERELVASISRTGDTTYYADSVKGRFTISRDNAKNTVYLQMNSLKPEDTAVYYCARRSRVGYPLDSWGQGTQVTVSS | high polyreactivity
40 | QVQLVESGGGLVQAGGTLRLSCAASGRTYYPNTMGWYRQAPGKERELVATITRSGGNTYADSVKGRFTISRDNAKNTVYFQMTSLKPEDTAVYYCAARNGRIAWMNYWGQGTQVTVSS | low polyreactivity
41 | QVQLVESVGGLVQAGGSLRLSCDATGNTFRIYAMGWYIHAPGKERQLVAAISQSGGSTYYADSVKGRFTISRDNAKNTVYLQMHSLKPEDTAVYYCNRRFAPFWGRDGYWGQGTQVTVSS | high polyreactivity
